Data taken from publication PMC9482650, “Quantitative fragmentomics allow affinity mapping of interactomes” (Nature Communications, 2022).

T1: APBA3_1, O96018
T1 sequence (O96018 389-490, limits assumed, looked up): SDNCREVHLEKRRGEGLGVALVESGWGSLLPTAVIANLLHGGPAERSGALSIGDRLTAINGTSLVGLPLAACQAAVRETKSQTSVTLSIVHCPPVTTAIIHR

T2: DFNB31_3, Q9P202
T2 sequence (Q9P202 811-907, limits assumed, looked up): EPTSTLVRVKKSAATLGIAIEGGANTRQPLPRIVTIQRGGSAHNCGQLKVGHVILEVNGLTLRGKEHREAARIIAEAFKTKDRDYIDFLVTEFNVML

T3: LIN7C, Q9NUP9
T3 sequence (Q9NUP9 88-185, limits assumed, looked up): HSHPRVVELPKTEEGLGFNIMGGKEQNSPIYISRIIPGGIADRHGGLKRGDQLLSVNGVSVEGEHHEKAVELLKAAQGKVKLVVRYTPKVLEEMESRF

T4: MPDZ_10, O75970
T4 sequence (O75970 1624-1722, limits assumed, looked up): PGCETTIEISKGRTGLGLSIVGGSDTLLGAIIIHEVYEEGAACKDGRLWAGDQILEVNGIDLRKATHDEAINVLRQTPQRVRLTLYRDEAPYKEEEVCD

T5: MPDZ_12, O75970
T5 sequence (O75970 1857-1958, limits assumed, looked up): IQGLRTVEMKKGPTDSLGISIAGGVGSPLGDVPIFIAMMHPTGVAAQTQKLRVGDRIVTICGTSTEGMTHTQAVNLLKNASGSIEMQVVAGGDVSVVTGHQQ

T6: NHERF3_1, Q5T2W1
T6 sequence (Q5T2W1 4-100, limits assumed, looked up): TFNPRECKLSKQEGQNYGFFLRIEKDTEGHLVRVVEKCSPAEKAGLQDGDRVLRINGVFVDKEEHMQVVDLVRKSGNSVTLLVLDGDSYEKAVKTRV

T7: PARD3B_1, Q8TEW8
T7 sequence (Q8TEW8 196-299, limits assumed, looked up): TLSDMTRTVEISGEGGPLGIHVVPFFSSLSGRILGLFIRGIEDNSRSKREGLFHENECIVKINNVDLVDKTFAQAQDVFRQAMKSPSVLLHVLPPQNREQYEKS

T8: RAPGEF6, Q8TEU7
T8 sequence (Q8TEU7 525-625, limits assumed, looked up): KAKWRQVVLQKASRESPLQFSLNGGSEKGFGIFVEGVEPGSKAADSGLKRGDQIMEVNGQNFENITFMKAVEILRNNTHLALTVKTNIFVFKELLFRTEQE

T9: SNTA1, Q13424
T9 sequence (Q13424 82-180, limits assumed, looked up): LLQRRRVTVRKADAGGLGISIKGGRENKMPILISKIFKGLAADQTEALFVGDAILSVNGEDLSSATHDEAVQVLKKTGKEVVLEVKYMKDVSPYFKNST

T10: SNTG1, Q9NSN8
T10 sequence (Q9NSN8 52-150, limits assumed, looked up): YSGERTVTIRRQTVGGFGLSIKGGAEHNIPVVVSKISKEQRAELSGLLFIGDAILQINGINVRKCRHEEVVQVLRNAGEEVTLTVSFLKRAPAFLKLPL


What was measured:
Experiment in all cases: holdup assay
Set-up in all cases: key: below the threshold = too weak to quantify, mostly under pKd 3.1 to 4
Conditions in all cases: plain residues with an end cap or a label only (N-terminal biotin on a linker: ado-ado)
APBA3_1, O96018 = biological target: T1, APBA3_1, O96018
CASK, O14936 = biological target: CASK, O14936
DFNB31_3, Q9P202 = biological target: T2, DFNB31_3, Q9P202
DLG2_2, Q15700 = biological target: DLG2_2, Q15700
DLG2_3, Q15700 = biological target: DLG2_3, Q15700
DLG5_1, Q8TDM6 = biological target: DLG5_1, Q8TDM6
FRMPD2_2, Q68DX3 = biological target: FRMPD2_2, Q68DX3
FRMPD4, Q14CM0 = biological target: FRMPD4, Q14CM0
GIPC2, Q8TF65 = biological target: GIPC2, Q8TF65
GOPC, Q9HD26 = biological target: GOPC, Q9HD26
GRID2IP_1, A4D2P6 = biological target: GRID2IP_1, A4D2P6
GRIP2_6, Q9C0E4 = biological target: GRIP2_6, Q9C0E4
IL16_4, Q14005 = biological target: IL16_4, Q14005
Inadl_1, Q8NI35 = biological target: Inadl_1, Q8NI35
LDB3, O75112 = biological target: LDB3, O75112
LIN7C, Q9NUP9 = biological target: T3, LIN7C, Q9NUP9
MAGI2_2, Q86UL8 = biological target: MAGI2_2, Q86UL8
MAGI2_3, Q86UL8 = biological target: MAGI2_3, Q86UL8
MPDZ_10, O75970 = biological target: T4, MPDZ_10, O75970
MPDZ_12, O75970 = biological target: T5, MPDZ_12, O75970
NHERF2_2, Q15599 = biological target: NHERF2_2, Q15599
NHERF3_1, Q5T2W1 = biological target: T6, NHERF3_1, Q5T2W1
PARD3B_1, Q8TEW8 = biological target: T7, PARD3B_1, Q8TEW8
RAPGEF6, Q8TEU7 = biological target: T8, RAPGEF6, Q8TEU7
SCRIB_1, Q14160 = biological target: SCRIB_1, Q14160
SNTA1, Q13424 = biological target: T9, SNTA1, Q13424
SNTG1, Q9NSN8 = biological target: T10, SNTG1, Q9NSN8
TJP1_3, Q07157 = biological target: TJP1_3, Q07157
Sequence of TJP1_3, Q07157 (Q07157 416-512): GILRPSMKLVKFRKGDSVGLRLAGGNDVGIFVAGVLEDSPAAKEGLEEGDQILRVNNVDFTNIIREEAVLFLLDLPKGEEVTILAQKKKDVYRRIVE

Sequence of DLG5_1, Q8TDM6 (Q8TDM6 617-713): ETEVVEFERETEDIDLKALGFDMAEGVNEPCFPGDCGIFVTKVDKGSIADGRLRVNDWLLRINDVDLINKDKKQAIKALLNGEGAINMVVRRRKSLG
Sequence of IL16_4, Q14005 (Q14005 1229-1329): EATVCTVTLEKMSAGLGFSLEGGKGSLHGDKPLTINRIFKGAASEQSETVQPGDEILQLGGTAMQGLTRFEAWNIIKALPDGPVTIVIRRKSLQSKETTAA
Sequence of LDB3, O75112 (O75112 1-94): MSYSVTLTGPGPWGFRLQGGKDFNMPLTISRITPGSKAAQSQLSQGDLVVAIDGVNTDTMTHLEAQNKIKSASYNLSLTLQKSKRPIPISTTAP
Sequence of GRIP2_6, Q9C0E4 (Q9C0E4 648-740): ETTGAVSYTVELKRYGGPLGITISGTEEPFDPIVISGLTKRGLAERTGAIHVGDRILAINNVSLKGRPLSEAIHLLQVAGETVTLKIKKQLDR
Sequence of MAGI2_3, Q86UL8 (Q86UL8 600-682): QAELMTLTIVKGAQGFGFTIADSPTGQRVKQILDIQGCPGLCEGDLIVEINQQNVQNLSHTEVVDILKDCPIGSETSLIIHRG
Sequence of GRID2IP_1, A4D2P6 (A4D2P6 1-87): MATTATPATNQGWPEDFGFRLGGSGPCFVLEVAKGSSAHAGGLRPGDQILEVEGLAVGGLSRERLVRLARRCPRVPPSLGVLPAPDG
Sequence of MAGI2_2, Q86UL8 (Q86UL8 410-522): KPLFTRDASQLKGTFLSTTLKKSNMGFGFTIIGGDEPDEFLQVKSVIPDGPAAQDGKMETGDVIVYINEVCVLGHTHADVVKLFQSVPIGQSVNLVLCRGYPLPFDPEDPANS
Sequence of Inadl_1, Q8NI35 (Q8NI35 113-229): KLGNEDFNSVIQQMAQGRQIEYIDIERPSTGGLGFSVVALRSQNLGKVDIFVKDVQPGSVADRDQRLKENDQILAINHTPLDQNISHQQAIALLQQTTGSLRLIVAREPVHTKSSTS
Sequence of GIPC2, Q8TF65 (Q8TF65 112-203): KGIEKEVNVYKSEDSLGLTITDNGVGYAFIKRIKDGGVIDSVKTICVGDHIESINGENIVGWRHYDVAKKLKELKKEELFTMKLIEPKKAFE
Sequence of NHERF2_2, Q15599 (Q15599 142-238): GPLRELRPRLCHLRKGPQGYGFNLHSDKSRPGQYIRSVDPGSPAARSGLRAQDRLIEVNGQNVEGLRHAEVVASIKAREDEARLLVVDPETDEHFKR
Sequence of CASK, O14936 (O14936 487-570): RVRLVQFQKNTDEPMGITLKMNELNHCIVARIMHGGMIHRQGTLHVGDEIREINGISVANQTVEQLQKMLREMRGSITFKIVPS
Sequence of FRMPD4, Q14CM0 (Q14CM0 67-160): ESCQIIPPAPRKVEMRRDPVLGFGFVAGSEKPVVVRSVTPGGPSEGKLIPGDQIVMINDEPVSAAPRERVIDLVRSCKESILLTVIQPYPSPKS
Sequence of FRMPD2_2, Q68DX3 (Q68DX3 944-1038): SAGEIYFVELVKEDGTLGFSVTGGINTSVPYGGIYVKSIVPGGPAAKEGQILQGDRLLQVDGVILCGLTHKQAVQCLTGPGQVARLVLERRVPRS
Sequence of SCRIB_1, Q14160 (Q14160 718-814): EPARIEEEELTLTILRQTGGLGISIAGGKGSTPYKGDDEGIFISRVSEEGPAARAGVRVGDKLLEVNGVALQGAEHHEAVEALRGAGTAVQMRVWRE

| pKd (APBA3_1, O96018) | pKd (CASK, O14936) | pKd (DFNB31_3, Q9P202) | pKd (DLG2_2, Q15700) | pKd (DLG2_3, Q15700) | pKd (DLG5_1, Q8TDM6) | pKd (FRMPD2_2, Q68DX3) | pKd (FRMPD4, Q14CM0) | pKd (GIPC2, Q8TF65) | pKd (GOPC, Q9HD26) | pKd (GRID2IP_1, A4D2P6) | pKd (GRIP2_6, Q9C0E4) | pKd (IL16_4, Q14005) | pKd (Inadl_1, Q8NI35) | pKd (LDB3, O75112) | pKd (LIN7C, Q9NUP9) | pKd (MAGI2_2, Q86UL8) | pKd (MAGI2_3, Q86UL8) | pKd (MPDZ_10, O75970) | pKd (MPDZ_12, O75970) | Binder | also measured |
| --- | --- | --- | --- | --- | --- | --- | --- | --- | --- | --- | --- | --- | --- | --- | --- | --- | --- | --- | --- | --- | --- |
| below the threshold | below the threshold | below the threshold | below the threshold | 3.63 | below the threshold | 3.87 | 3.87 | below the threshold | below the threshold | below the threshold | 4.3 | below the threshold | 3.91 | below the threshold | below the threshold | 4.96 | below the threshold | below the threshold | below the threshold | SFISKKEWYV [NECTIN1, Q15223] | pKd (NHERF2_2, Q15599): below the threshold; pKd (NHERF3_1, Q5T2W1): 4.28; pKd (PARD3B_1, Q8TEW8): 4.73; pKd (RAPGEF6, Q8TEU7): below the threshold; pKd (SCRIB_1, Q14160): below the threshold; pKd (SNTA1, Q13424): below the threshold; pKd (SNTG1, Q9NSN8): 3.51; pKd (TJP1_3, Q07157): below the threshold |
| below the threshold | below the threshold | below the threshold | below the threshold | below the threshold | below the threshold | below the threshold | 4.17 | below the threshold | 3.94 | below the threshold | below the threshold | 3.61 | below the threshold | below the threshold | below the threshold | below the threshold | below the threshold | below the threshold | below the threshold | LKDDELKTKL [SLCO1A2, P46721] | pKd (NHERF2_2, Q15599): 4.67; pKd (NHERF3_1, Q5T2W1): 4.87; pKd (PARD3B_1, Q8TEW8): 3.84; pKd (RAPGEF6, Q8TEU7): below the threshold; pKd (SCRIB_1, Q14160): below the threshold; pKd (SNTA1, Q13424): below the threshold; pKd (SNTG1, Q9NSN8): below the threshold; pKd (TJP1_3, Q07157): below the threshold |
| below the threshold | below the threshold | below the threshold | below the threshold | below the threshold | below the threshold | below the threshold | 3.53 | below the threshold | 4.26 | below the threshold | below the threshold | 3.6 | below the threshold | below the threshold | below the threshold | below the threshold | below the threshold | below the threshold | below the threshold | PSVGSKKTVL [REELD1, A0A1B0GV85] | pKd (NHERF2_2, Q15599): 3.68; pKd (NHERF3_1, Q5T2W1): 3.72; pKd (PARD3B_1, Q8TEW8): 4.62; pKd (RAPGEF6, Q8TEU7): below the threshold; pKd (SCRIB_1, Q14160): below the threshold; pKd (SNTA1, Q13424): 3.73; pKd (SNTG1, Q9NSN8): below the threshold; pKd (TJP1_3, Q07157): below the threshold |
| below the threshold | below the threshold | 3.74 | below the threshold | 3.78 | below the threshold | below the threshold | below the threshold | below the threshold | below the threshold | below the threshold | below the threshold | below the threshold | below the threshold | below the threshold | 3.84 | below the threshold | below the threshold | below the threshold | 3.49 | DRIQSCLSDA [SBF1, O95248] | pKd (NHERF2_2, Q15599): below the threshold; pKd (NHERF3_1, Q5T2W1): below the threshold; pKd (PARD3B_1, Q8TEW8): below the threshold; pKd (RAPGEF6, Q8TEU7): below the threshold; pKd (SCRIB_1, Q14160): below the threshold; pKd (SNTA1, Q13424): below the threshold; pKd (SNTG1, Q9NSN8): below the threshold; pKd (TJP1_3, Q07157): below the threshold |
| below the threshold | below the threshold | 3.75 | below the threshold | 3.49 | below the threshold | below the threshold | below the threshold | 3.75 | below the threshold | below the threshold | below the threshold | below the threshold | below the threshold | below the threshold | below the threshold | below the threshold | below the threshold | 3.47 | 3.48 | AEASVACSLC [PTGIR, P43119] | pKd (NHERF2_2, Q15599): below the threshold; pKd (NHERF3_1, Q5T2W1): 4.51; pKd (PARD3B_1, Q8TEW8): below the threshold; pKd (RAPGEF6, Q8TEU7): below the threshold; pKd (SCRIB_1, Q14160): below the threshold; pKd (SNTA1, Q13424): below the threshold; pKd (SNTG1, Q9NSN8): below the threshold; pKd (TJP1_3, Q07157): below the threshold |
